According to patent publication US20030134799A1:
Read-outs that look alike come from different tables or passages of the source.

How the values were obtained:
[1] = target: NMDA receptor of well-washed rat forebrain membranes (rat) (UniProt Q9R1M7)
[2] = target: NMDA receptor of primary cultures of rat cerebellar granule cells (rat); experiment: cell-based or functional assay
[3] = target: NMDA receptor of well-washed rat forebrain membranes (rat) (UniProt Q9R1M7); experiment: cell-based or functional assay
[4] = target: NMDA receptor of well-washed rat forebrain membranes (rat) (UniProt Q9R1M7); experiment: displacement of [3H]ifenprodil, polyamine-sensitive site

NMDA receptor of well-washed rat forebrain membranes (rat), sequence (Q9R1M7 24-1135): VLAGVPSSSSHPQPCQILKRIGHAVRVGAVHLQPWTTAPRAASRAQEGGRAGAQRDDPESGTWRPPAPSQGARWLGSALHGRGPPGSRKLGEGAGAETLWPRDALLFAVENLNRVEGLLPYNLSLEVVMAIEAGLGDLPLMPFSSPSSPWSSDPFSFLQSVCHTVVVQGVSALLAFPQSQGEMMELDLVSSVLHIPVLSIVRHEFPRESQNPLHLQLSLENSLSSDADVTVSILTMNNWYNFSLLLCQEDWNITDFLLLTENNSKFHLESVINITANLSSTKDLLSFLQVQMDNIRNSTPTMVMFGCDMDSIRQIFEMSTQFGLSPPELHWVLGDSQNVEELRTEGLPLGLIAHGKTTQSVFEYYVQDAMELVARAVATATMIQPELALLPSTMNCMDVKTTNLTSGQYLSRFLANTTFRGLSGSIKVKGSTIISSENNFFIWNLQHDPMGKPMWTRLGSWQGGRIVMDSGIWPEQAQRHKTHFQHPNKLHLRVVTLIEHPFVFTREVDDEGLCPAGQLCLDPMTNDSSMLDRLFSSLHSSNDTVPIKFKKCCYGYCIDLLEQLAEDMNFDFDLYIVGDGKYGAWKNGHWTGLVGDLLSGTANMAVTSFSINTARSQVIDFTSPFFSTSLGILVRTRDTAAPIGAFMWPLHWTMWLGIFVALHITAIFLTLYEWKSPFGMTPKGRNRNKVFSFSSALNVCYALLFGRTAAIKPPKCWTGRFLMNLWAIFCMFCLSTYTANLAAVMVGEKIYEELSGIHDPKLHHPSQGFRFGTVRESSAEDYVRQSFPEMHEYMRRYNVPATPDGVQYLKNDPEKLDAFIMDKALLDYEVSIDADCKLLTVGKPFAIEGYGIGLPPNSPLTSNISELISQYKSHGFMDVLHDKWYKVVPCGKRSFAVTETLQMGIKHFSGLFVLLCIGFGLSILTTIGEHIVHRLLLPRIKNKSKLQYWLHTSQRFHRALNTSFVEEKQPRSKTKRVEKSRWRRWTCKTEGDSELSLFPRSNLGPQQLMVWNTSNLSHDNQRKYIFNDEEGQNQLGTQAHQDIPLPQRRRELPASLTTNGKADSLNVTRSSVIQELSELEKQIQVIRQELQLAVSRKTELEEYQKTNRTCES

## Conantokin-G (peptide)
[1]
  IC50: > 5 µM
[2]
  IC50, inhibition of NMDA-stimulated increases in cyclic GMP formation: 0.3 µM
[3]
  % Inh, spermine-enhanced [3H]MK-801 binding: 100%
  % Sti, [3H]MK-801 binding without spermine: 0%
  IC50, antagonism of Gly-stimulated [3H]MK-801 binding, representative experiment: 0.835 µM
  IC50, inhibition of spermine-enhanced [3H]MK-801 binding, typical experiment: 0.275 µM
  IC (µM), inhibition of spermine-enhanced [3H]MK-801 binding: 0.16 µM
[4]
  IC50: > 5 µM
